According to US9969998B2, “Compositions of adenosine deaminase-2 (ADA2), variants thereof and methods of using same” (Halozyme, Inc., priority 2014, dated 2018):
Read-outs that look alike come from different tables or passages of the source.

How the values were obtained:
[1] = biological target: T1, ADA1 (Homo sapiens, UniProt P00813); settings: cited from earlier work
T1 sequence (P00813 1-363): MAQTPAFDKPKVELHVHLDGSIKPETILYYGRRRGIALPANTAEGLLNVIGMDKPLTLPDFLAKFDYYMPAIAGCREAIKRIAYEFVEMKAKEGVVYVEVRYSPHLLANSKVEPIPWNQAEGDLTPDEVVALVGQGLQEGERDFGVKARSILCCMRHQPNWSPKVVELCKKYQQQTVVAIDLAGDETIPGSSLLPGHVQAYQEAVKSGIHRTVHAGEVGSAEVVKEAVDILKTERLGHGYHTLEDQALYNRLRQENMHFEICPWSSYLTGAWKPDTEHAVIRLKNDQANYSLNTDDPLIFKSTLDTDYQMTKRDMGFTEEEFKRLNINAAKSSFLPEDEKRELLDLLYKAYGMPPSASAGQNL

[2] = biological target: T2, ADA2 (Homo sapiens, UniProt Q9NZK5); settings: cited from earlier work
T2 sequence (Q9NZK5 30-511): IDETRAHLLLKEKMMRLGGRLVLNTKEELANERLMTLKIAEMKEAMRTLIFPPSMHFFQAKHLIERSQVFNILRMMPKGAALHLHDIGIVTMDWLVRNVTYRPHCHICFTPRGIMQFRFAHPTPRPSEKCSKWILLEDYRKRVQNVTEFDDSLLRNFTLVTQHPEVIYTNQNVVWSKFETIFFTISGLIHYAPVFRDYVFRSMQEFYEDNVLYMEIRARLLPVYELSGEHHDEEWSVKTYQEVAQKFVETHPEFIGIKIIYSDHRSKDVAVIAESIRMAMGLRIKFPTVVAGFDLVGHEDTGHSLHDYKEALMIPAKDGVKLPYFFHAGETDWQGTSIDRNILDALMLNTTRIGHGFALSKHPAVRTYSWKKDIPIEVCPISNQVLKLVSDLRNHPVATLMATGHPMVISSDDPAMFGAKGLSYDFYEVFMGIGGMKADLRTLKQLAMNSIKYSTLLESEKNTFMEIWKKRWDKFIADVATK

[3] = Stability of ADA activity in plasma; type: in vitro ADME, mouse; settings: long incubation (e.g., 24 hours) in plasma
Method: For therapeutic uses, such as for treatment of tumors or cancers, it is desirable to administer to the subject a dosage of ADA2 that will maintain plasma adenosine deaminase (ADA) activity for a sufficient time for therapeutic effect. […] The plasma stability of any ADA2 described herein, such as a wildtype, variant or conjugate, can be determined by measuring the changes in enzymatic activity and/or other physical properties, before and after incubation in plasma, e.g., ex vivo mammalian plasma.
Stability can be assessed in vitro or in vivo. For example, stability can be tested after exposure to plasma for a desired length of time, which can be empirically determined or selected by a skilled artisan depending on the desired length of time. For example, the incubation time can be at least 1 hour, such as at least 2, 3, 4, 5, 10, 15, 20, 24, 30, 36, 48, 60, 72 hours or more. The protein can be directly administered systemically, such as intravenously, and activity can be assessed. In other examples, the protein can be subject to appropriate incubation conditions in vitro. In one example, the stability of ADA activity of any ADA2 provided herein can be measured after incubation at 37° C., in 25% ex vivo plasma or serum, such as human or non-human plasma or serum, for example, mouse plasma. […]

[4] = cited from earlier work
[5] = adenosine deaminase activity, cited from earlier work
[6] = Heparin binding ELISA (heparin coated microtiter plate); settings: for Average OD450, heparin binding ELISA: 3 μM protein
Outline: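 Plates coated with 200 μg/mL heparin in Na2CO3 buffer pH 9.6 overnight at 4° C, then milk-blocked. FLAG-tagged rHuADA2 variants added at 3 μM for 2 h at room temperature. Bound protein detected with HRP-anti-FLAG and TMB, read as OD450.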

[7] = Heparin binding capture ELISA (biotin-heparin on streptavidin plate); settings: PEGylated and non-PEGylated forms (Table 22)
Method: Heparin binding of PEGylated rHuADA2 or variants was assessed by capture ELISA. Binding of rHuADA1 was assessed as a negative control. 100 μL of 0.2 mg/mL biotin-heparin (Sigma-Aldrich, St. Louis, Mo.; Cat No. B9806-10MG) was added to a streptavidin coated 96-well plate (Thermo Fisher Scientific, Rockford, Ill.; Cat. No. 15520), and incubated at room temperature for 1 hour. The plate was washed 6 times with PBS. Then, 150 μL of […] rHuADA2 was added to the heparin coated plate, titrated in 3× serial dilutions, and incubated at room temperature for 2 hours. The plate was then washed 6 times with PBS. A 1000× dilution of goat HRP-anti-FLAG pAb (Abcam, Cambridge, UK; Cat. No. Ab1238) was added to the ELISA plate and incubated at room temperature for 1 hour. The ELISA plate was then washed 6 times with phosphate buffered saline with Tween (PBST) and developed with the 3,3′,5,5′-Tetramethylbenzidine (TMB) substrate solution (Pierce, Thermo Fisher Scientific, Rockford, Ill.) according the manufacturer's instructions and reading the optical density at 450 nm (OD450) on a plate reader.

[8] = 37° C.; for Plasma incubated mean adenosine deaminase activity: 0.17 mg/ml in 25% BALB/c mouse plasma; for PBS incubated mean adenosine deaminase activity: 0.17 mg/ml in PBS 0.2% BSA

OC[C@H]1O[C@@H](n2cnc3c2N=CNC[C@H]3O)[C@H](O)[C@@H]1O [Coformycin]
inhibition of ADA1 [1]: potent inhibitors
inhibition of ADA2 [2]: potent inhibitors

CCCCCC[C@H]([C@H](C)O)n1cnc2c(N)ncnc21 [EHNA, (+)-erythro-9-(2-hydroxy-3-nonyl)adenine]
inhibition of ADA1 [1]: selectively inhibits ADA1
inhibition of ADA2 [2]: does not inhibit ADA2

OC[C@H]1O[C@@H](n2cnc3c2N=CNC[C@H]3O)C[C@@H]1O [2′-deoxycoformycin]
inhibition of ADA2 [2]: potent inhibitors

B1: ADA1: human adenosine deaminase 1, monomer, SEQ ID NO:12 (protein, listed as Homo sapiens)
chain: T1 sequence (P00813 1-363)
modifications: ADA1 protein; ref <300>: PUBLICATION INFORMATION:; ref <308>: DATABASE ACCESSION NUMBER: NCBI NP_000013.2; ref <309>: DATABASE ENTRY DATE: 2014-05-03
stability in plasma [3]: substantially less stable
Km ([4]; for adenosine, wild-type enzyme in humans, read-out: Km): ~52 µM
Km ([4]; read-out: Km for adenosine): ~100 µM
pH optimum [5]: ~7.5
pH optimum ([5]; listed as ADA′): 7.5

B2: WT ADA1: recombinant human adenosine deaminase 1 with Strep-tag, mature SEQ ID NO:66/67 (protein, listed as Homo sapiens)
chain 1: AQTPAFDKPKVELHVHLDGSIKPETILYYGRRRGIALPANTAEGLLNVIGMDKPLTLPDFLAKFDYYMPAIAGCREAIKRIAYEFVEMKAKEGVVYVEVRYSPHLLANSKVEPIPWNQAEGDLTPDEVVALVGQGLQEGERDFGVKARSILCCMRHQPNWSPKVVELCKKYQQQTVVAIDLAGDETIPGSSLLPGHVQAYQEAVKSGIHRTVHAGEVGSAEVVKEAVDILKTERLGHGYHTLEDQALYNRLRQENMHFEICPWSSYLTGAWKPDTEHAVIRLKNDQANYSLNTDDPLIFKSTLDTDYQMTKRDMGFTEEEFKRLNINAAKSSFLPEDEKRELLDLLYKAYGMPPSASAGQNL
chain 2: AQTPAFDKPKVELHVHLDGSIKPETILYYGRRRGIALPANTAEGLLNVIGMDKPLTLPDFLAKFDYYMPAIAGCREAIKRIAYEFVEMKAKEGVVYVEVRYSPHLLANSKVEPIPWNQAEGDLTPDEVVALVGQGLQEGERDFGVKARSILCCMRHQPNWSPKVVELCKKYQQQTVVAIDLAGDETIPGSSLLPGHVQAYQEAVKSGIHRTVHAGEVGSAEVVKEAVDILKTERLGHGYHTLEDQALYNRLRQENMHFEICPWSSYLTGAWKPDTEHAVIRLKNDQANYSLNTDDPLIFKSTLDTDYQMTKRDMGFTEEEFKRLNINAAKSSFLPEDEKRELLDLLYKAYGMPPSASAGQNLSGSGSWSHPQFEK
modifications: Strep-tag; mature ADA1 protein; mature ADA1-linker-Strep
Average OD450, heparin binding ELISA ([6]; Set 1): 0.07
Average OD450, heparin binding ELISA ([6]; Set 2): 0.06
Heparin Binding ELISA Average OD450 ([6]; single and S265N combination variants (Table 34)): −0.02
Average OD450, heparin binding capture ELISA [7]: <0.02
Plasma incubated mean adenosine deaminase activity ([8]; 0 hr): 71,663.6 mU/mL
PBS incubated mean adenosine deaminase activity ([8]; 0 hr): 61,077.0 mU/mL
Plasma incubated mean adenosine deaminase activity ([8]; 4 hr): 46,772.1 mU/mL
PBS incubated mean adenosine deaminase activity ([8]; 4 hr): 59,544.8 mU/mL
activity retained in PBS/BSA control ([8]; 24 hours): greater than 80%
activity retained after treatment with plasma ([8]; 24 hours, mouse plasma): less than 1%
Plasma incubated mean adenosine deaminase activity ([8]; 24 hr): 673.6 mU/mL
PBS incubated mean adenosine deaminase activity ([8]; 24 hr): 50,287.9 mU/mL
